The series concerns the molecule itself. As to the kind of experiment: cross-linking.

Experimental findings from article doi:10.1101/2024.06.07.597859 (bioRxiv, 2024) are described below.

Values joined by “and” are separate entries in the source; they are usually repeats but may differ in a detail not shown here. Identical values can stand only once.

B1: Plasmodium falciparum tRNA-splicing endonuclease PfTSEN1 (enzyme, UniProt A0A144A1E9 1-220, looked up)
chain: MKIIYEFKKEYYEIILNENNADDNVIDLFEKNTNKCNIEIKPYDDINSDLLDFDQFKMFNIDKDDIKKKNEDKKDEDRIKYILDKESYNNSIDKLNDNSCDESCYITDDELCKQINNPFDNTYNNKFVVKYKEYFEENSFIVKKGDIYGADFLLYITEQKYAHSLYAVYIIYKHYILRDLIRILRVSHSIKKKVILILWNELNCFNISDTLVYIKSYKYK
The term stoichiometry N denotes a count of units in the complex or per binding partner. Regarding B1, the “stoichiometry N” value was 2 and 3 and 4.
